This is an account of results in the supplement of paper PMC10567573.

± gives the standard deviation.

This data set in a line: protein stability index of a GFP-peptide fusion (GPS, HEK-293T) (PSI 1-6); higher = more stable.
Setting [1] is: treatment: DMSO, c terminus: a fixed tail appended.
[2] abbreviates: treatment: MLN4924 1 uM, 8 h, c terminus: a fixed tail appended.
Where [3] appears, read: treatment: DMSO, c terminus: native.
The mark [4] stands for this setting: treatment: MLN4924 1 uM, 8 h, c terminus: native.
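Also: 24-mer peptide tiles fused after GFP, lentivirally expressed, FACS-sorted into six equal bins by GFP/DsRed ratio, decoded by Illumina sequencing, PSI is the read-weighted mean bin number.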

As for LNAYMKSLLSLPVWVLMDEDVRIF [NCF4], the protein stability index reads like this: under setting [1], 3.17 ± 0.86; under setting [2], 2.54 ± 0.46.

As for KAVFGKHGPISEVLLIKDRTSKSR [RBMY1A1], the protein stability index was determined as 3.04 ± 0.28 under setting [1] and 3.34 ± 0.22 under setting [2].

As to AIVGGMALGVAGLAGLIGLAVSKS [FIS1], the protein stability index under setting [1] was found to be 3.38 ± 0.82 and the protein stability index under setting [2] is 3.12 ± 0.51.

Consider AEETANLPPSPPPSPASEQTVTVE [MAP2], for which the protein stability index came out at 5.05 ± 0.18 under setting [1] and 5.18 ± 0.17 under setting [2].

The sequence RVKFRRQEANARERNRMHGLNDAL [NEUROD6] returned a protein stability index under setting [1] of 3.37 ± 0.18 and a protein stability index under setting [2] of 3.43 ± 0.34.

As to PKAQSAMSPYLVPDTQALCHHLPV [SMG5], the protein stability index runs as follows: under setting [1], 3.34 ± 0.2; under setting [2], 3.38 ± 0.12.

As for GRTENGALAPKQELPSALESHEVP [ZNF24], the protein stability index reads like this: under setting [1], 5.24 ± 0.1; under setting [2], 5.27 ± 0.086.

AHQHRDKMQQSKNQVVSSTNGELN [CSNK1G3]: the protein stability index is 5.02 ± 0.42 under setting [1] and 5.1 ± 0.25 under setting [2].

In turn, PGSNLNLLTNNSGTPKDHDSPENG [ETS2] came in with a protein stability index under setting [1] of 5.33 ± 0.22 and a protein stability index under setting [2] of 5.31 ± 0.26.

As to SPSPMDPHMAEQTFEQAIQAASRI [CDC25B], the protein stability index reads like this: under setting [1], 4.68 ± 0.16; under setting [2], 4.56 ± 0.25.

As for GHKRKQPLPKRVAKVPRPPSTLLP [FOXJ1], the protein stability index by setting is: under setting [1], 4.02 ± 0.49; under setting [2], 3.86 ± 0.041.

Regarding WEVQVSPTCPVCKDRASPADLRTN [TRIM35], the protein stability index was determined as 3.2 ± 0.43 under setting [1] and 3.61 ± 0.27 under setting [2].

On to GNGRPGRPSQYRPDGLRSGDGVPP [LCOR], for which the protein stability index reads like this: under setting [1], 4.59 ± 0.31; under setting [2], 4.79 ± 0.2.

Consider GYREDNIPQLEDVSNFLKERTGFS [TPH1], for which the protein stability index reads like this: under setting [1], 3.75 ± 0.24; under setting [2], 3.99 ± 0.42.

SESMENINSGYETRRKKGKKDKDI [KMT2E] came in with a protein stability index under setting [1] of 5.01 ± 0.33 and a protein stability index under setting [2] of 5.39 ± 0.42.

LGLETLKITDFQLHASTVKRYGLG [CPXM2] gave a protein stability index under setting [1] of 2.61 ± 0.52 and a protein stability index under setting [2] of 2.46 ± 0.12.

Take RALHWAAYMGHLDVVALLINHGAE [ANKRD44]: the protein stability index worked out at 2.56 ± 0.43 under setting [1] and 3.12 ± 0.66 under setting [2].

In the case of VNKITFSEQCYYIFGDLCGNMANL [DVL3], the protein stability index by setting is: under setting [1], 2.66 ± 0.38; under setting [2], 2.36 ± 0.37.

In the case of ETVVSYLPLSHIAAQMMDIWVPIK [ACSBG2], the protein stability index is, setting by setting: under setting [1], 2.14 ± 0.36; under setting [2], 2.04 ± 0.14.

CFVLGFFYPVMLILFLVIGGMLNF [SOAT2]: the protein stability index was 3.27 ± 0.52 under setting [1] and 3.53 ± 0.61 under setting [2].

With LASGPGKYMPHLCQDSSGEVSCQC, the protein stability index under setting [1] was determined as 3.99 ± 0.12 and the protein stability index under setting [2] came out at 4.1 ± 0.27.

Regarding LTSRIKGDWIGLYRHFLKSPNFDG [DENND6A], the protein stability index by setting is: under setting [1], 2.01 ± 0.31; under setting [2], 2.37 ± 0.35.

As for MLNMWKVRELVDKATNVVMNYSEI [CLINT1], the protein stability index is, setting by setting: under setting [1], 2.4 ± 0.17; under setting [2], 2.23 ± 0.22.

On to SLSDLEIQASAGVISKKAKVKVPQ [ZNF75A], for which the protein stability index reads like this: under setting [1], 4.44 ± 0.21; under setting [2], 4.55 ± 0.14.

Take ITYQPAASTKMCEQALGKGCGADS [PLK2]: the protein stability index is, setting by setting: under setting [1], 4.06 ± 0.36; under setting [2], 4.44 ± 0.24.

Regarding AFYKEQLARLEERSSEFYRVTTEQ [CHCHD3], the protein stability index was determined as 3.29 ± 0.12 under setting [1] and 3.38 ± 0.34 under setting [2].

As for DLPINVFKLLAGRWPFDHNDFGVF [EDNRA], the protein stability index by setting is: under setting [1], 2.19 ± 0.7; under setting [2], 2.19 ± 0.45.

Turning to VQKNILAAASPYIRTKLNYNPPKD [GAN], the protein stability index is, setting by setting: under setting [1], 2.97 ± 0.34; under setting [2], 3.24 ± 0.38.

AMGDHSKKKPGTAMCVGCGSQIHD [ISL2]: the protein stability index is 4.18 ± 0.32 under setting [1] and 4.3 ± 0.26 under setting [2].

Regarding ASDYSKKSNVLKLKTADWRVFLFQ [PSD2], the protein stability index reads like this: under setting [1], 2.12 ± 0.42; under setting [2], 2.23 ± 0.19.

As to INVPIRLECVKFASHCLMNHPDLA [PDS5B], the protein stability index worked out at 2.28 ± 0.46 under setting [1] and 2.27 ± 0.17 under setting [2].

In the case of GSAPPRATPGGGTGEAARPHKGLN [PCDHGC5], the protein stability index came to 5.19 ± 0.34 under setting [1] and 5.26 ± 0.32 under setting [2].

For EGYKDADYWLRRFEAEPLPENTNR [PI4K2A], the protein stability index reads like this: under setting [1], 4.52 ± 0.13; under setting [2], 4.41 ± 0.16.

Turning to DKFIEDYLLPDTCFRMQINHAIDI [OAS1], the protein stability index by setting is: under setting [1], 2.59 ± 0.36; under setting [2], 2.17 ± 0.44.

ALLESSLRQAQQNMDPKAAEEEEE [CCND1] had a protein stability index under setting [1] of 5.28 ± 0.29 and a protein stability index under setting [2] of 5.42 ± 0.25.

VGIFNTVINPMLNPIIYSFRNPDV [OR3A1] showed a protein stability index under setting [1] of 2.34 ± 0.48 and a protein stability index under setting [2] of 3.03 ± 0.83.

Take LCALPVHVAVEHQLPPASRCVLVF [SOAT2]: the protein stability index by setting is: under setting [1], 2.71 ± 0.6; under setting [2], 2.71 ± 0.61.

As to SFAELFSFMLQDRAKGLLGTTVTF [FEM1C], the protein stability index stood at 2.79 ± 0.56 under setting [1] and 3.21 ± 0.84 under setting [2].

In turn, EVPEMSPVTCCDVSSNNRLVVTGS [TLE6] registered a protein stability index under setting [1] of 4.35 ± 0.31 and a protein stability index under setting [2] of 4.57 ± 0.1.

With DKGGRVVIFQREQESKNQVHRRGE [PPP2R2B], the protein stability index under setting [1] was found to be 4.59 ± 0.32 and the protein stability index under setting [2] came to 4.95 ± 0.29.

Take GPMPMSMPNVMTGTMGMAPLGNTP [CLINT1]: the protein stability index is, setting by setting: under setting [1], 4.03 ± 0.21; under setting [2], 4.02 ± 0.31.

Consider LDFSKKILHTAWHPSENIIAVAAT [PPP2R2B], for which the protein stability index amounted to 2.05 ± 0.2 under setting [1] and 2.3 ± 0.039 under setting [2].

Regarding LVEKGVLTTEKQNFLLFDMTTHPL [GOLPH3], the protein stability index reads like this: under setting [1], 2.51 ± 0.27; under setting [2], 2.5 ± 0.3.

Regarding QPPNAEEESGSSSASEEEDTKPKP [INTS3], the protein stability index was found to be 5.72 ± 0.23 under setting [1] and 5.65 ± 0.21 under setting [2].

Regarding CPRIAPADSGRYRASPTRTAPLPM [ELOA2], the protein stability index by setting is: under setting [1], 3.63 ± 0.17; under setting [2], 3.76 ± 0.41.

Regarding HRSYLGPGSTSPLETSGNPNGRYG [SLC6A17], the protein stability index reads like this: under setting [1], 4.27 ± 0.062; under setting [2], 4.26 ± 0.29.

In the case of TRNGEVVTESQKEQRSELDKSSAH [PRPH], the protein stability index amounted to 5.06 ± 0.27 under setting [1] and 5.31 ± 0.4 under setting [2].

In the case of EARARARANRGILQQERQRLGQRQ [DNAJC4], the protein stability index by setting is: under setting [1], 4.74 ± 0.28; under setting [2], 4.65 ± 0.14.

EEEEEATNTHPPASLPSQKYPGPQ [CHGA]: the protein stability index is 5.61 ± 0.16 under setting [1] and 5.54 ± 0.17 under setting [2].

For YNNQSLGHGSHSFIYYENMLLGVP [PKD2L1], the protein stability index reads like this: under setting [1], 2.16 ± 0.21; under setting [2], 2.23 ± 0.37.

NDMSPSNNVVPIHVPPTTENKPKV [RAB11A]: the protein stability index reads like this: under setting [1], 5.42 ± 0.12; under setting [2], 5.33 ± 0.19.

As to SEAPNEKLFFVDTGSKEKGLTKKR [NOP53], the protein stability index stood at 4.98 ± 0.44 under setting [1] and 5.37 ± 0.15 under setting [2].

As for QEYAAKIINTKKLSARDHQKLERE [CAMK2A], the protein stability index by setting is: under setting [1], 4.71 ± 0.22; under setting [2], 4.78 ± 0.19.

For the sequence ESKMYATSPYSDPVVSMDLDPQPI [PTPRD], the protein stability index was 4.18 ± 0.53 under setting [1] and 4.42 ± 0.047 under setting [2].

For the sequence HVSPPPSADPARGLPRSRDCRVDL [PDLIM4], the protein stability index by setting is: under setting [1], 4.76 ± 0.14; under setting [2], 4.73 ± 0.13.

Regarding PLVLSYIDLSAWCYYCQAYVHHQA [HDAC6], the protein stability index under setting [1] amounted to 2.97 ± 0.81 and the protein stability index under setting [2] stood at 3.27 ± 0.49.

In the case of LVNPLDPRNADKIRVKIADLGNAC [SRPK2], the protein stability index runs as follows: under setting [1], 2.92 ± 0.18; under setting [2], 2.97 ± 0.22.

For the sequence KTPVLLTDYPVDLDEIAYFTWAS [MYORG], the protein stability index under setting [3] turned out to be 2.25 ± 0.15 and the protein stability index under setting [4] worked out at 2.18 ± 0.3.

Consider LFSLMVVNRLTEELGCDEIIDRE [EID1], for which the protein stability index runs as follows: under setting [3], 3 ± 1.1; under setting [4], 2.37 ± 0.48.

Regarding LPEDDGLEQDLQQVMVSGPNLNET [ARFIP2], the protein stability index is 5.32 ± 0.32 under setting [1] and 5.43 ± 0.13 under setting [2].

On to ASVLLQAVLYPRFMGTISDVKTNV [CD207], for which the protein stability index came to 2.76 ± 0.38 under setting [1] and 2.69 ± 0.41 under setting [2].

Consider HSAAYRADPLRVSSRDKLTEMAAS [FUNDC2], for which the protein stability index under setting [1] is 3.92 ± 0.3 and the protein stability index under setting [2] turned out to be 4.23 ± 0.22.

For the sequence RERKKLVLENLEDSCVLTGPDDSL [TRIB3], the protein stability index worked out at 4.91 ± 0.26 under setting [1] and 4.95 ± 0.36 under setting [2].

Consider NPFQDPAVIQHRPSRQYATLDVYN [SCAMP3], for which the protein stability index reads like this: under setting [1], 3.6 ± 0.28; under setting [2], 3.62 ± 0.19.

For the sequence IVGNQVQGAPASSFVYVNPEDGRI [PCDHGC5], the protein stability index is 3.46 ± 0.073 under setting [1] and 3.48 ± 0.21 under setting [2].

As for PSLQAWNDAPCDKTFLFICKRPYV [CD207], the protein stability index came to 2.17 ± 0.28 under setting [1] and 2.2 ± 0.21 under setting [2].

Regarding PPPHLLPEKHQVPEKLIWGDQDPL [WDR88], the protein stability index is 4.53 ± 0.23 under setting [1] and 4.44 ± 0.15 under setting [2].

KSLSELVDDKFGTGTKKVTRILDG [PSD2] registered a protein stability index under setting [1] of 4.44 ± 0.18 and a protein stability index under setting [2] of 4.53 ± 0.23.

With YIPSYTSWYPSAHQEAMQQPQLM [DLX1], the protein stability index is, setting by setting: under setting [3], 2.63 ± 0.36; under setting [4], 2.44 ± 0.26.

Take YIKVDWQRVEKDMKKAKEQLKIRK [FUNDC2]: the protein stability index by setting is: under setting [1], 2.46 ± 0.61; under setting [2], 2.94 ± 0.74.

On to KGGAVAADGRIEPGDMLLQVNEIN [DVL3], for which the protein stability index reads like this: under setting [1], 4.49 ± 0.19; under setting [2], 4.59 ± 0.14.

Take QLRSDVCTPGGTTIYGLHALEQGG [PYCR3]: the protein stability index amounted to 3.69 ± 0.23 under setting [1] and 3.61 ± 0.51 under setting [2].
